T1: recombinant monomeric mouse ENTPD2 extracellular domain (residues 29-462) with His6 tag (mouse, UniProt O55026 29-462)
T1 sequence: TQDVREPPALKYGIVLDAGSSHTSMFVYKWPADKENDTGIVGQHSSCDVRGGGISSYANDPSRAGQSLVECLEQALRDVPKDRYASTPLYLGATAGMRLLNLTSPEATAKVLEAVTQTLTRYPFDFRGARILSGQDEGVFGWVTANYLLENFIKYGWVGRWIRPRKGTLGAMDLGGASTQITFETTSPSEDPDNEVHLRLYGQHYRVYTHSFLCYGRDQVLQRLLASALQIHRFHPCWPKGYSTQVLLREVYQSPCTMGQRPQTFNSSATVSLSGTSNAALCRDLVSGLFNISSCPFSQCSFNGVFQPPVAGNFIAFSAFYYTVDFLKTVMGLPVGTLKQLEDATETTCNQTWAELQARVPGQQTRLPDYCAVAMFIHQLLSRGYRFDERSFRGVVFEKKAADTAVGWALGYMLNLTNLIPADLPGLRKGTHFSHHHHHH

T2: recombinant cyno ENTPD2 extracellular domain (residues 29-462) with C-terminal Avi-His6 tag (cynomolgus macaque, UniProt Q9Y5L3 29-462 (human entry))
T2 construct: also called cynomologus (cyno) ENTPD2 ECD
T2 chain (part 1 of 2): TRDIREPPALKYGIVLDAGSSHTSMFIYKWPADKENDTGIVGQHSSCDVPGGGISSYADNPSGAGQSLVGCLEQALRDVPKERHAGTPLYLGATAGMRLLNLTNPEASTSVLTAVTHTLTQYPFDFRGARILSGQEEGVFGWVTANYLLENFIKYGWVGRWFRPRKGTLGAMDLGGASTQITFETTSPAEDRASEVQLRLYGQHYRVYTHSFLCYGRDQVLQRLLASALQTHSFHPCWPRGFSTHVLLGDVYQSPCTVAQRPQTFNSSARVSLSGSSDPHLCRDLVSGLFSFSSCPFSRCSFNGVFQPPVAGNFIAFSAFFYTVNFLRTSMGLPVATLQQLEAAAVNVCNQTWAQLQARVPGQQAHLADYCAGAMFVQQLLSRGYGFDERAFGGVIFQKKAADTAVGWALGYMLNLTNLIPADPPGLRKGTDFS
T2 chain (part 2 of 2): HHHHHH

T3: human ENTPD2 expressed on cells (human, UniProt Q9Y5L3 1-495)
T3 construct: full-length human ENTPD2 on engineered cells; also called NIH3T3 humanENTPD2; NIH/3T3-hENTPD2
T3 sequence: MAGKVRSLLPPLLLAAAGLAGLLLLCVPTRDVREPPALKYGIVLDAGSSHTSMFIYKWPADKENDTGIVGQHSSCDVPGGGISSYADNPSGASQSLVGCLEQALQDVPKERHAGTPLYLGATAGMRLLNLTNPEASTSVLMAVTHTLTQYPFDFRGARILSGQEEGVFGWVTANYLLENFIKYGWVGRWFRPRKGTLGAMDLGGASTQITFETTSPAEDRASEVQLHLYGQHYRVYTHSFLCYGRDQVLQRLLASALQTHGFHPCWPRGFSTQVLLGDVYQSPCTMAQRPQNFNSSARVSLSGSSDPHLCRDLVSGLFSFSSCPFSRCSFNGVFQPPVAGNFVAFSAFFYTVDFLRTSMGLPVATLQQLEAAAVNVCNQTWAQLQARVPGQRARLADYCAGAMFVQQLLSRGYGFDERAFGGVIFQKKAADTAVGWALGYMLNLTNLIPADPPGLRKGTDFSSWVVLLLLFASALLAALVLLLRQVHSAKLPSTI

T4: cyno ENTPD2 expressed on NIH/3T3 cells (cynomolgus macaque, UniProt Q9Y5L3 1-495 (human entry))
T4 chain: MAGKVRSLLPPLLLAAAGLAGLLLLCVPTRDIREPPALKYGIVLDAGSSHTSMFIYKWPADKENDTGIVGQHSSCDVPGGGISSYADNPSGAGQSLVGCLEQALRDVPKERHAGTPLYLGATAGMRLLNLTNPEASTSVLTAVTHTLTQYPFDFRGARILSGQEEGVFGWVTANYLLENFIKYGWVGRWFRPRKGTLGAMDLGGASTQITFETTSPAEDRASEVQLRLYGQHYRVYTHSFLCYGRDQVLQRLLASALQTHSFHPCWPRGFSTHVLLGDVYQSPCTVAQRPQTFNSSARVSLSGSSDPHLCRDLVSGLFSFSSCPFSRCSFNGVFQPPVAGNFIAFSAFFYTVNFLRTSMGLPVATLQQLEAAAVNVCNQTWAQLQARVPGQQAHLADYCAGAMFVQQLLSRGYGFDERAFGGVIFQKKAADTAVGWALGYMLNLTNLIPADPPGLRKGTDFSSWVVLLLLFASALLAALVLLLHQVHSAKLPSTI


Key:
[1] = molecular target: T1, recombinant monomeric mouse ENTPD2 …; assay: SPR Biacore
[2] = molecular target: T5, recombinant human ENTPD2 extracellular domain (residues 29-462) with C-terminal Avi-His6 tag (human, UniProt Q9Y5L3 29-462, biotinylated on the AviTag in the epitope binning assay); assay: SPR Biacore, mAb captured, ECD analyte, 25C
T5 construct: also called human ENTPD2 ECD; Human ENTPD2-Avi-His6 protein
Procedure: (§1) Biacore Screening: Affinity was measured by determining the kinetic rate constants using surface plasmon resonance (SPR) on a Biacore T200 or T100 with the T200 sensitivity upgrade instrument (Biacore, GE Healthcare). Antibodies were captured on CM5 sensor chips (Biacore, GE Healthcare) prepared with a mouse anti-human IgG Fc antibody (ThermoFisher catalogue #05-4200) amine coupled to the surface. […] ENTPD2 analytes were allowed to associate for 180 s and dissociate for up to 1800 s depending on the off-rate of the antibody at a flow rate of 30 μL/min. The running buffer was PBS pH 7.2 (prepared from a Corning 10X stock, cat#46-013-CM)+0.05% Tween 20. […] The raw data were analyzed using Biacore T200 Evaluation Software version 1.0 and fit to a 1:1 binding model, with all parameters set to fit globally except for RI, which was set to fit locally.

[3] = molecular target: T2, recombinant cyno ENTPD2 extracellular …; assay: SPR Biacore, mAb captured, ECD analyte, 25C
Procedure: as §1

[4] = molecular target: T3, human ENTPD2 expressed on cells; assay: flow cytometry, NIH3T3 human ENTPD2 cells
[5] = molecular target: T4, cyno ENTPD2 expressed on NIH/3T3 cells; assay: cell-based or functional assay
[6] = molecular target: T3, human ENTPD2 expressed on cells; assay: cell-based or functional assay

Binder | binding result [1] | Kd [2] [nM] | koff [2] [s⁻¹] | kon [2] [M⁻¹ s⁻¹] | Kd [3] [nM] | koff [3] [s⁻¹] | kon [3] [M⁻¹ s⁻¹] | EC50 [4] [nM] | % inhibition, Cyno ENTPD2 NIH/3T3 Assay [5] [%] | IC50, Cyno ENTPD2 NIH/3T3 Assay [5] [nM] | % inhibition, Human ENTPD2 NIH/3T3 Assay [6] [%] | % inhibition, RKO Assay [6] [%] | IC50, Human ENTPD2 NIH/3T3 Assay [6] [nM] | IC50, RKO Assay [6] [nM]
ANTI-HUMAN ENTPD2 MAB2 (antibody, human IgG1, kappa, humanized from mAb17; human IgG1, kappa; also called Anti-ENTPD2 mAb2) heavy: not shown light: EIVLTQSPATLSASPGERITLSCSASSSVSYIHWYQQKPGQAPRLLIYSTSNLASGIPARFSGSGSGTFYTLTISSVEPEDAAVYYCHQWSSYPWTFGGGTKLEIKRTVAAPSVFIFPPSDEQLKSGTASVVCLLNNFYPREAKVQWKVDNALQSGNSQESVTEQDSKDSTYSLSSTLTLSKADYEKHKVYACEVTHQGLSSPVTKSFNRGEC | no binding | 1.7 | 0.00018 | 110000 | 2.8 | 0.0012 | 430000 | 2.1 | 84 | 2.7 | 98 | 86 | 1.4 | 0.8
ANTI-HUMAN ENTPD2 MAB3 (antibody, human IgG1, kappa, V domains shown, humanized from mAb17; human IgG1, kappa; also called Anti-ENTPD2 mAb3) VH: QVQLVQSGAEVVKPGASVKISCKASGYTFTDYNMDWVKQAPGQRLEWIGDINPKYDISTYNQQFKGKATITVDTSASTAYMELSSLRSEDTAVYYCARRGFFLYYGINYYYFDVWGQGTLVTVSS VL: EIVLTQSPATLSASPGERITLSCSASSSVSYIHWYQQKPGQAPRLLIYSTSNLASGIPARFSGSGSGTFYTLTISSVEPEDAAVYYCHQWSSYPWTFGGGTKLEIKR | no binding | 1.3 | 0.00016 | 130000 | 2.2 | 0.00098 | 450000 | 2.8 | 84 | 5.8 | 91 | 95 | 1.8 | 1.6
ANTI-HUMAN ENTPD2 MAB7 (antibody, human IgG1, kappa, humanized from mAb17; human IgG1, kappa; also called Anti-ENTPD2 mAb7) heavy: not shown light: EIVLTQSPATLSASPGEEITLSCSASSSVSYIHWYQQKPGQAPRLLIYSTSNLASGIPARFSGSGSGTFYTLTISSVEPEDAAVYYCHQWSSYPWTFGGGTKLEIKRTVAAPSVFIFPPSDEQLKSGTASVVCLLNNFYPREAKVQWKVDNALQSGNSQESVTEQDSKDSTYSLSSTLTLSKADYEKHKVYACEVTHQGLSSPVTKSFNRGEC | no binding | 0.9 | 0.00019 | 210000 | 1.1 | 0.0012 | 1.2e+06 | 0.5 | 82 | 2.7 | 95 | 92 | 0.8 | 0.6
ANTI-HUMAN ENTPD2 MAB4 (antibody, human IgG1, kappa, V domains shown, humanized and optimized from mAb16; human IgG1, kappa; also called Anti-ENTPD2 mAb4) VH: QIQLQESGPGLVKPSQTLSLTCTVSGYSITSGYYWNWIRQHPGKGLEWIGYISYDADNNYNPSLKNRVTISRDTSKNQFSLKLSSVTAADTAVYYCAGGYYRYGLGSYRGSYYYVMDYWGQGTTVTVSS VL: ETVLTQSPATLSVSPGERATISCKASQSVDYEGHSYMNWYQQKPGQAPRLLIYAASNLESGIPARFSGSGSGTDFTLTISSVEPEDAATYYCQQSNEDPPTFGGGTKLEIKR | no binding | 0.7 | 0.00022 | 300000 | 42.1 | 0.0057 | 140000 | 0.9 | 75 | 2.2 | 87 | 74 | 0.2 | 0.2
ANTI-HUMAN ENTPD2 MAB5 (antibody, human IgG1, kappa, V domains shown, humanized and optimized from mAb16; human IgG1, kappa; also called Anti-ENTPD2 mAb5) VH: QIQLQESGPGLVKPSQTLSLTCTVSGYSITSGYYWNWIRQHPGKGLEWIGYISYDADNNYNPSLKNRVTISRDTSKNQFSLKLSSVTAADTAVYYCAGGYYRYGLGSYRGSYYYVMDYWGQGTTVTVSS VL: ETVLTQSPATLSVSPGERATISCKASQSVDYDGNSYMNWYQQKPGQAPRLLIYAASNLESGIPARFSGSGSGTDFTLTISSVEPEDAATYYCQQSNEDPPTFGGGTKLEIKR | no binding | 0.6 | 0.00016 | 270000 | 10.7 | 0.003 | 290000 | 0.9 | 80 | 1.5 | 95 | 80 | 0.3 | 0.2
ANTI-HUMAN ENTPD2 MAB6 (antibody, human IgG1, kappa, V domains shown, humanized and optimized from mAb16; human IgG1, kappa; also called Anti-ENTPD2 mAb6) VH: QVQLQESGPGLVKPSQTLSLTCTVSGYSITSGYYWNWIRQHPGKGLEWMGYISYDADNNYNPSLKNRITISRDTSKNQFSLKLSSVTAADTAVYYCAGGYYRYGLGSYSGSYYYVMDYWGQGTTVTVSS VL: DTQMTQSPSSLSVSVGDRATITCKASQSVDYEGHSYMNWYQQKPGKAPKLLIYAASNLESGVPSRFSGSGSGTDFTLTISSVQPEDFATYYCQQSNEDPPTFGGGTKLEIKR | no binding | 0.7 | 0.00026 | 350000 | 35.6 | 0.01 | 290000 | 0.9 | 73 | 3.3 | 95 | 90 | 0.3 | 0.2

— patent publication US20220348651A1 (Novartis, published 2022)
